Results reported in patent US6558660B2, “Method for regulating IL-10 with IL-9, and applications thereof” (Ludwig Institute for Cancer Research, priority 2000, dated 2003).

Experiments:
[1] = system: P. aeruginosa (serotype 10); conditions: cited from earlier work
[2] = system: TNF-α, IL-12 p40, and IFN-γ; test: serum levels of TNF-α, IL-12 p40 and IFN-γ after challenge (bioassay / immunoassay); type: in vivo, mice; conditions: IL-9 24 and 1 hour prior to challenge (P. aeruginosa or LPS); 2, 4 and 6 hours after challenge
Description: (§1) It has been observed, previously, that there is a strong association between development of fatal septic shock and production of TNF-α. See, e.g., the Campanile papers, cited supra. In addition, IL-12 and IFN-γ are pro-inflammatory cytokines thought to have a pathogenetic role in both septic shock and endotoxemia. See D'Andrea, et al, J. Exp. Med. 178:1041 (1993). Murphy, et al, J. Exp. Med. 180:223 (1994); Kubin, et al, J. Exp. Med. 180:211 (1994). In view of the results secured in examples 1 & 2, studies were undertaken to measure serum levels of TNF-α, IL-12 p40, and IFN-γ, in subject animals challenged with P. aeruginosa in the manner described supra, or lipopolysaccharide antigen (“LPS” hereafter), that were also treated with IL-9.
(§2) In these experiments, mice were injected, intraperitoneally, with 850 μg of LPS, which had been determined previously to constitute an LD90. All animals received doses of IL-9 as described supra, 24 and 1 hour prior to challenge. Sera were analyzed 2, 4, 6, 8, and 24 hours following challenge, using either a standard bioassay for TNF-α (cytotoxicity to TNF-α sensitive WEH1 164 cells), or via an immunossay (IL-12p40 and IFN-γ).

IL-10 [3] = test: PCR of IL-10 transcripts in spleen cells of challenged mice; type: in vivo; conditions: after infection, animals which had received IL-9; control mice hardly detectable
Description: The experiments described herein report analyses of expression of IL-10. Specifically, total RNA was isolated from spleen cells of challenged mice at different points in time (0.5, 1, 2, 4, and 8 hours). Isolation was carried out in accordance with Campanile, et al, Eur. J. Pharmacol. 307:191 (1996), and Houssiau, et al, J. Immunol. 154:2624 (1995), incorporated by reference. These references also describe the PCR protocols used for amplifying transcripts of β-actin (control), and IL-10. Commercially available primers were used to amplify β actin, and the 5′ and 3′ primers for IL-10 were, respectively: […]
The amplification product for β actin should be 540 base pairs in length, and that of IL-10, 256 base pairs. Products were analyzed via 1.5% agarose gel electrophoresis, and visualized by ethidium bromide staining.

IL-10 [4] = test: serum IL-10 by ELISA after LPS challenge; type: in vivo; conditions: LPS challenged mice; IL-9 24 and 1 hour prior to challenge
Description: (§3) In view of the observations of Giampetri, et al, supra, serum levels of the anti-inflammatory cytokines IL-4 and IL- 10 were measured in the sera of mice that had been challenged, either with the whole bacteria or with LPS, as described supra, and had received IL-9 24 and 1 hour prior to challenge, as described supra. Levels were measured via ELISAs, 2, 4, 6, 8, and 24 hours after challenge.

IL-10 [5] = test: serum IL-10 by ELISA after P. aeruginosa challenge; type: in vivo, mice; conditions: 2 hours following Pseudomonas infection; IL-9 24 and 1 hour prior to challenge
Description: as §3

TNF-α [6] = test: serum TNF-α bioassay (cytotoxicity to WEH1 164 cells) after LPS challenge; type: in vivo, mice; conditions: LPS challenged animals (850 μg i.p.); IL-9 24 and 1 hour prior to challenge
Description: as §1, §2

IL-4 = test: serum IL-4 by ELISA after challenge; type: in vivo, mice; conditions: IL-9 24 and 1 hour prior to challenge with bacteria or LPS; 2-24 hours after challenge
Description: as §3

TNF-α [7] = test: serum TNF-α bioassay (cytotoxicity to WEH1 164 cells) after P. aeruginosa challenge; type: in vivo; conditions: P. aeruginosa treated mice; IL-9 24 and 1 hour prior to challenge
Description: as §1, §2

[8] = LPS challenge (LD90), survival; type: in vivo, mice; conditions: 850 μg LPS i.p.; IL-9 24 and 1 hour prior to challenge
Description: as §2

[9] = system: P. aeruginosa (serotype 10); test: live sepsis model, survival after lethal P. aeruginosa challenge; type: in vivo, mice
Description: This model was used in these experiments. To elaborate, hybrid mice (BALB/c Cr×DBA/2Cr) F1 (CD2 F1) of both sexes, ranging in age from 2-4 months were used. Mice were injected, intravenously, with 10^10 cells of P. aeruginosa (serotype 10), as described by, e.g., Campanile, et al, Cell. Immunol. 128:250 (1990); Campanile, et al, Cell. Immunol. 147:341 (1993); Campanile, et al, Eur. J. Pharmacol. 307:191 (1996). The microorganism was cultured in tryptic soy broth using standard conditions, and incubated at 37° C. for 18-24 hours under constant aeration. After the overnight culturing, the microorganisms were centrifuged, forming a soft pellet which was then resuspended in phosphate buffered saline. The dose of microorganisms referred to supra was then administered. This inoculum size is known to be lethal in more than 90% of test animal populations.
The interleukins and PBS were all administered intraperitoneally. Pentoxifylline was also administered intraperitoneally.
The experiments described supra were repeated, using a variety of doses, and both prophylactic and post-challenge administration.
To test this, mice received pentoxifylline at a dose of 30 mg/kg of body weight 1 hour before challenge with bacteria. The animals received a dose of murine IL-9 (4 μg) three hours post infection.

For CC(=O)CCCCn1c(=O)c2c(ncn2C)n(C)c1=O [Pentoxifylline, reference compound], the “protection in experimental sepsis” value ([1]; phosphodiesterase inhibitor, literature statement) is given as “confers protection”.

B1: IL-9: recombinant murine IL-9 produced in a baculovirus model in accordance with Druez, et al (protein, UniProt P15247 19-144, looked up)
Interleukin-9: QRCSTTWGIRDTNYLIENLKDDPPSKCSCSGNVTSCLCLSVPTDDCTTPCYREGLLQLTNATQKSRLLPVFHRVKRIVEVLKNITCPSFSCEKPCNQTMAGNTLSFLKSLLGTFQKTEMQRQKSRP
For B1, the “expression of the cytokines (TNF-α, IL-12 p40, IFN-γ) in serum” value [2] was “drastic reduction in all three cytokines”, the “IL-10 specific transcripts in spleen” value (IL-10 [3]) was “extensive expression” and the “increase of IL-10 levels (serum)” value (IL-10 [4]) was “The same effect, albeit a lesser one”. For the same molecule, the “increase of IL-10 levels (serum)” value (IL-10 [5]) was “striking”, the “drop in TNF-α levels” value (TNF-α [6]) was “better than a twofold drop” and the “effect on IL-4 production (serum level)” value (IL-4) was “did not appear to have any effect”. The “drop in TNF-α levels” value (TNF-α [7]) was 10 fold, the “outcome (survival) of LPS challenged mice” value [8] was “death in the majority of the animals tested” and the survival rate ([9]; IL-9 i.p. prior to P. aeruginosa challenge, pooled independent experiments) was “about 80%”. The cure rate ([9]; single 4 μg dose 24 hours before bacterial challenge, no second dose) was 50% and the “benefit (survival)” value ([9]; single treatment of 4 μg near the time of infection, and as much as 3 hours post challenge) was “marginal benefit”.

B2: IL-4: IL-4 (3 μg/mouse), together with 30 μg of anti-IL-4 monoclonal antibodies; composition improving bioavailability of IL-4 (protein, UniProt P07750 21-140, looked up)
Interleukin-4: HIHGCDKNHLREIIGILNEVTGEGTPCTEMDVPNVLTATKNTTESELVCRASKVLRIFYLKHGKTPCLKKNSSVLMELQRLFRAFRCLDSSISCTMNESKSTSLKDFLESLKSIMQMDYS
modifications: complexed with anti-IL-4 antibody
In the case of B2, the “protection against fatal sepsis” value ([1]; IL-4 3 μg/mouse together with 30 μg anti-IL-4 monoclonal antibodies, i.p., before P. aeruginosa challenge) is given as 100%.
